Data taken from publication PMC6555819, “Comprehensive study of nuclear receptor DNA binding provides a revised framework for understanding receptor specificity”.

B1: NRC3_random_hg19_361_o1 (dsDNA)
DNA 1: GCAAACTGGGAGGTGGAGGTTGTAGTAAGCCAAGATGCGATTGACAGCGTAGAATGAAGG
DNA 2: CCTTCATTCTACGCTGTCAATCGCATCTTGGCTTACTACAACCTCCACCTCCCAGTTTGC
B2: NRC3_wobSeed88_DR3_G10A_o1 (dsDNA)
DNA 1: GCTAGCCTAAGTCATGCGGGCCAGTATAGTGTCGGCGCGATTGACAGCGTAGAATGAAGG
DNA 2: CCTTCATTCTACGCTGTCAATCGCGCCGACACTATACTGGCCCGCATGACTTAGGCTAGC
B3: NRC3_wobSeed39_DR1_T8G_o1 (dsDNA)
DNA 1: GCCGAACGAGGTCAAAGGACAGTGAAAGGCGACGTAGCGATTGACAGCGTAGAATGAAGG
DNA 2: CCTTCATTCTACGCTGTCAATCGCTACGTCGCCTTTCACTGTCCTTTGACCTCGTTCGGC
B4: NRC3_random_hg19_316_o1 (dsDNA)
DNA 1: GCCAAAGACAGCTTTGCAAGGCCACTTCTGTTTGCTGCGATTGACAGCGTAGAATGAAGG
DNA 2: CCTTCATTCTACGCTGTCAATCGCAGCAAACAGAAGTGGCCTTGCAAAGCTGTCTTTGGC
B5: NRC3_random_hg19_232_o1 (dsDNA)
DNA 1: GCTTAGCAGGAACTGAGAAGTCACACTCAAGAGTTAGCGATTGACAGCGTAGAATGAAGG
DNA 2: CCTTCATTCTACGCTGTCAATCGCTAACTCTTGAGTGTGACTTCTCAGTTCCTGCTAAGC
B6: NRC3_wobSeed136_DR5_T12G_o1 (dsDNA)
DNA 1: GCTAGCCTAGGGCATTCAGGGGCCAGTATAGAAAGCGCGATTGACAGCGTAGAATGAAGG
DNA 2: CCTTCATTCTACGCTGTCAATCGCGCTTTCTATACTGGCCCCTGAATGCCCTAGGCTAGC
B7: NRC3_wobSeed87_DR3_T8A_o1 (dsDNA)
DNA 1: GCCGAACAAGGTCATCCAGGACAGTGAATACATTGAGCGATTGACAGCGTAGAATGAAGG
DNA 2: CCTTCATTCTACGCTGTCAATCGCTCAATGTATTCACTGTCCTGGATGACCTTGTTCGGC
B8: NRC3_wobSeed67_DR2_o1 (dsDNA)
DNA 1: GCCCAGACAGGTGAGAAGGTAACTCAGCCTCGATTAGCGATTGACAGCGTAGAATGAAGG
DNA 2: CCTTCATTCTACGCTGTCAATCGCTAATCGAGGCTGAGTTACCTTCTCACCTGTCTGGGC
B9: NRC3_random_hg19_377_o1 (dsDNA)
DNA 1: GCTTTAGAAGAAAGGTTTCATTACTGAGAGCAGCCAGCGATTGACAGCGTAGAATGAAGG
DNA 2: CCTTCATTCTACGCTGTCAATCGCTGGCTGCTCTCAGTAATGAAACCTTTCTTCTAAAGC
B10: NRC3_random_hg19_15_o1 (dsDNA)
DNA 1: GCGTTGGTCAGCTGGTCTCGAACTCCTGACCTCAAGGCGATTGACAGCGTAGAATGAAGG
DNA 2: CCTTCATTCTACGCTGTCAATCGCCTTGAGGTCAGGAGTTCGAGACCAGCTGACCAACGC
B11: NRC3_random_hg19_144_o1 (dsDNA)
DNA 1: GCCAGTGCTGGCGTCGTAGTGCTTGCCATAACAGAGGCGATTGACAGCGTAGAATGAAGG
DNA 2: CCTTCATTCTACGCTGTCAATCGCCTCTGTTATGGCAAGCACTACGACGCCAGCACTGGC
B12: NRC3_wobSeed109_DR4_A8G_o1 (dsDNA)
DNA 1: GCCGTCCGAGGTCATAGGAGGTCAGTGAAGACAGATGCGATTGACAGCGTAGAATGAAGG
DNA 2: CCTTCATTCTACGCTGTCAATCGCATCTGTCTTCACTGACCTCCTATGACCTCGGACGGC
B13: NRC3_random_hg19_295_o1 (dsDNA)
DNA 1: GCGAGGTTGCAGAGATGTTCTCACTAAACATTCGTTGCGATTGACAGCGTAGAATGAAGG
DNA 2: CCTTCATTCTACGCTGTCAATCGCAACGAATGTTTAGTGAGAACATCTCTGCAACCTCGC
B14: NRC3_random_hg19_36_o1 (dsDNA)
DNA 1: GCCAGGCAGTTTGCTTGAGCTCAGGAGTTCAAGACTGCGATTGACAGCGTAGAATGAAGG
DNA 2: CCTTCATTCTACGCTGTCAATCGCAGTCTTGAACTCCTGAGCTCAAGCAAACTGCCTGGC
B15: NRC3_wobSeed114_DR4_T5A_o1 (dsDNA)
DNA 1: GCAAAACAGGGTCATCGTAGGCCAGAGTACGCACAGGCGATTGACAGCGTAGAATGAAGG
DNA 2: CCTTCATTCTACGCTGTCAATCGCCTGTGCGTACTCTGGCCTACGATGACCCTGTTTTGC
B16: NRC3_wobSeed116_DR4_T13C_o1 (dsDNA)
DNA 1: GCAGAATGAGGTCACCAAAGATCAGGGAAACGCTTGGCGATTGACAGCGTAGAATGAAGG
DNA 2: CCTTCATTCTACGCTGTCAATCGCCAAGCGTTTCCCTGATCTTTGGTGACCTCATTCTGC
B17: NRC3_random_hg19_148_o1 (dsDNA)
DNA 1: GCTGTGTCACCATGAGCAATCCAACCAGGCATCCCAGCGATTGACAGCGTAGAATGAAGG
DNA 2: CCTTCATTCTACGCTGTCAATCGCTGGGATGCCTGGTTGGATTGCTCATGGTGACACAGC
B18: NRC3_random_hg19_296_o1 (dsDNA)
DNA 1: GCGGCCTATGGCTCCAGAATGCTAATGCTACTCTGCGCGATTGACAGCGTAGAATGAAGG
DNA 2: CCTTCATTCTACGCTGTCAATCGCGCAGAGTAGCATTAGCATTCTGGAGCCATAGGCCGC
B19: NRC3_wobSeed18_DR0_C18T_o1 (dsDNA)
DNA 1: GCGATACAGGGTCAAGGTCAGAGTACGCGTATTGATGCGATTGACAGCGTAGAATGAAGG
DNA 2: CCTTCATTCTACGCTGTCAATCGCATCAATACGCGTACTCTGACCTTGACCCTGTATCGC
B20: NRC3_random_hg19_395_o1 (dsDNA)
DNA 1: GCGTACAATTGCCCTCTTAGCAGAGTTCTGGTGCATGCGATTGACAGCGTAGAATGAAGG
DNA 2: CCTTCATTCTACGCTGTCAATCGCATGCACCAGAACTCTGCTAAGAGGGCAATTGTACGC
B21: NRC3_random_hg19_467_o1 (dsDNA)
DNA 1: GCGAAACTGCTGCAAAGGCCTACTGAAGCCTGACTGGCGATTGACAGCGTAGAATGAAGG
DNA 2: CCTTCATTCTACGCTGTCAATCGCCAGTCAGGCTTCAGTAGGCCTTTGCAGCAGTTTCGC
B22: NRC3_random_hg19_475_o1 (dsDNA)
DNA 1: GCATGAAAGTTTAGTATGTGTAGGGTAGTGCTTCATGCGATTGACAGCGTAGAATGAAGG
DNA 2: CCTTCATTCTACGCTGTCAATCGCATGAAGCACTACCCTACACATACTAAACTTTCATGC
B23: NRC3_wobSeed140_DR5_T13C_o1 (dsDNA)
DNA 1: GCAGAATGAGGTCATACGTAGATCAGGGAAGAAAGTGCGATTGACAGCGTAGAATGAAGG
DNA 2: CCTTCATTCTACGCTGTCAATCGCACTTTCTTCCCTGATCTACGTATGACCTCATTCTGC
B24: NRC3_random_hg19_137_o1 (dsDNA)
DNA 1: GCCTCACGTGTTTCCTGGTAGAAATGCAGAGTACAAGCGATTGACAGCGTAGAATGAAGG
DNA 2: CCTTCATTCTACGCTGTCAATCGCTTGTACTCTGCATTTCTACCAGGAAACACGTGAGGC
B25: NRC3_random_hg19_87_o1 (dsDNA)
DNA 1: GCGACTGCTTGCATCAGTCAAGGTTTGGGCAGTGAGGCGATTGACAGCGTAGAATGAAGG
DNA 2: CCTTCATTCTACGCTGTCAATCGCCTCACTGCCCAAACCTTGACTGATGCAAGCAGTCGC
B26: NRC3_wobSeed20_DR0_T13C_o1 (dsDNA)
DNA 1: GCAGAATGAGGTCAAGATCAGGGAAACAGAATACATGCGATTGACAGCGTAGAATGAAGG
DNA 2: CCTTCATTCTACGCTGTCAATCGCATGTATTCTGTTTCCCTGATCTTGACCTCATTCTGC
B27: NRC3_wobSeed135_DR5_T8G_o1 (dsDNA)
DNA 1: GCCGAACGAGGTCATTGACAGGACAGTGAATAGTAAGCGATTGACAGCGTAGAATGAAGG
DNA 2: CCTTCATTCTACGCTGTCAATCGCTTACTATTCACTGTCCTGTCAATGACCTCGTTCGGC
B28: NRC3_wobSeed13_DR0_G21A_o1 (dsDNA)
DNA 1: GCCGTCCAAGGTCAAGGTCAATGAAAGAGACTCGAAGCGATTGACAGCGTAGAATGAAGG
DNA 2: CCTTCATTCTACGCTGTCAATCGCTTCGAGTCTCTTTCATTGACCTTGACCTTGGACGGC
B29: NRC3_random_hg19_488_o1 (dsDNA)
DNA 1: GCGGTTGCAGTGAGCTGAGATCACACCACTGCACTCGCGATTGACAGCGTAGAATGAAGG
DNA 2: CCTTCATTCTACGCTGTCAATCGCGAGTGCAGTGGTGTGATCTCAGCTCACTGCAACCGC
B30: NRC3_random_hg19_245_o1 (dsDNA)
DNA 1: GCATGTTCCTTTACCCTAGCTGCAGTGGGTATCCACGCGATTGACAGCGTAGAATGAAGG
DNA 2: CCTTCATTCTACGCTGTCAATCGCGTGGATACCCACTGCAGCTAGGGTAAAGGAACATGC
B31: NRC3_random_hg19_210_o1 (dsDNA)
DNA 1: GCATCATTTGCTCTGGGTGAAGCCAGCTACCATGTTGCGATTGACAGCGTAGAATGAAGG
DNA 2: CCTTCATTCTACGCTGTCAATCGCAACATGGTAGCTGGCTTCACCCAGAGCAAATGATGC
B32: NRC3_wobSeed59_DR2_o1 (dsDNA)
DNA 1: GCTCTATTAGTTGATTAGGGCAACCGAAACAGCGGAGCGATTGACAGCGTAGAATGAAGG
DNA 2: CCTTCATTCTACGCTGTCAATCGCTCCGCTGTTTCGGTTGCCCTAATCAACTAATAGAGC
B33: NRC3_random_hg19_345_o1 (dsDNA)
DNA 1: GCGCAGTGGGTGATGATGTCACTGGTTAACGTGGCTGCGATTGACAGCGTAGAATGAAGG
DNA 2: CCTTCATTCTACGCTGTCAATCGCAGCCACGTTAACCAGTGACATCATCACCCACTGCGC

Each binder was assayed against FXR:RXRa (Homo sapiens, UniProt Q96RI1;P19793 full;full) (assay: no ligand; PBM; 270 nM : 90 nM RXRa; PBS pH 7.4, 2% milk, 0.02% Triton X-100, 1 mM DTT, BSA, 0.4 mg/ml salmon testes DNA). Settings: tags: His kept;His cleaved; copies: 1;1; label: surface-attached array probe.
FXR:RXRa, sequence (Q96RI1 whole entry, chain 1 of 2): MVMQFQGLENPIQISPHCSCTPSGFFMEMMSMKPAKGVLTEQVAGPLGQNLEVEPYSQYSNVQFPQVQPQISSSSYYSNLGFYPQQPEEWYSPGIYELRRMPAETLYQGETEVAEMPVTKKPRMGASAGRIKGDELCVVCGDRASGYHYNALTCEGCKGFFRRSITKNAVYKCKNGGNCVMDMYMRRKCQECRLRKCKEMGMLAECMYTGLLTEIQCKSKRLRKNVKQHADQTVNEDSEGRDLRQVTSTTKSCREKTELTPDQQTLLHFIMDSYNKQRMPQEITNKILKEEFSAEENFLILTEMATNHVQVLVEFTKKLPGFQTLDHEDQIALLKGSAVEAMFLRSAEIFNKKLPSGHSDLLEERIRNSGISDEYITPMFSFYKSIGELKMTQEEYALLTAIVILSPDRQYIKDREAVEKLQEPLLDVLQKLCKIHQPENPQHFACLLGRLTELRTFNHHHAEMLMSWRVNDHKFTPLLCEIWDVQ
FXR:RXRa, sequence (P19793 whole entry, chain 2 of 2): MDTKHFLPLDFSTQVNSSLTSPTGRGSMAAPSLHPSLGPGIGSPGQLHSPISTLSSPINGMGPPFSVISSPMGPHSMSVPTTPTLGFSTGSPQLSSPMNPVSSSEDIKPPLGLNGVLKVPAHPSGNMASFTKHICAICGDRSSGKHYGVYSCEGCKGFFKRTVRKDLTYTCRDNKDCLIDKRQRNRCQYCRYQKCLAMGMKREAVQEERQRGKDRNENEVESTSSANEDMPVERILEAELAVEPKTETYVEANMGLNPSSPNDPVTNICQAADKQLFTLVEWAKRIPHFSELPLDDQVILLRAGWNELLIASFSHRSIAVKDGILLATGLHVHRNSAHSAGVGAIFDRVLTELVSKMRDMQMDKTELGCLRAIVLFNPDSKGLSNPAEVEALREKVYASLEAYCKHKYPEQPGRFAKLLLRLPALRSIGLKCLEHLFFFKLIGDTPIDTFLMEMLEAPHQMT
Outline: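 Binding z-scores were set against random background probes. The data came from custom Agilent 4×180K protein-binding microarrays carrying double-stranded probes with 34-nt variable regions, incubated 1 h with ligand-free nuclear receptor dimers. Partner-specific antibodies detected binding, and scanned fluorescence was regression-normalized.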
In the case of B1, the binding signal is reported as 0.3 PBM z-score against 500 random probes. With B2 the binding signal was -0.37 PBM z-score against 500 random probes. For B3, the binding signal was 8.11 PBM z-score against 500 random probes. B4 was tested, and the binding signal was -0.15 PBM z-score against 500 random probes. In the case of B5, the binding signal is reported as -0.34 PBM z-score against 500 random probes. B6 was tested, and the binding signal was -0.08 PBM z-score against 500 random probes. In the case of B7, the binding signal is reported as 8.1 PBM z-score against 500 random probes. For B8, the binding signal was 0.47 PBM z-score against 500 random probes. In the case of B9, the binding signal is reported as -0.61 PBM z-score against 500 random probes. With B10 the binding signal was 0.16 PBM z-score against 500 random probes. With B11 the binding signal was -0.87 PBM z-score against 500 random probes. For B12, the binding signal was 8.19 PBM z-score against 500 random probes. With B13 the binding signal was 0.03 PBM z-score against 500 random probes. In the case of B14, the binding signal is reported as -0.62 PBM z-score against 500 random probes. For B15, the binding signal was 7.8 PBM z-score against 500 random probes. With B16 the binding signal was 7.91 PBM z-score against 500 random probes. For B17, the binding signal was -0.04 PBM z-score against 500 random probes. B18 was tested, and the binding signal was -0.48 PBM z-score against 500 random probes. In the case of B19, the binding signal is reported as 7.81 PBM z-score against 500 random probes. With B20 the binding signal was 0.09 PBM z-score against 500 random probes. In the case of B21, the binding signal is reported as -0.59 PBM z-score against 500 random probes. In the case of B22, the binding signal is reported as 0.26 PBM z-score against 500 random probes. B23 was tested, and the binding signal was 8.1 PBM z-score against 500 random probes. For B24, the binding signal was 0.08 PBM z-score against 500 random probes. With B25 the binding signal was -0.74 PBM z-score against 500 random probes. In the case of B26, the binding signal is reported as 7.87 PBM z-score against 500 random probes. For B27, the binding signal was 7.83 PBM z-score against 500 random probes. In the case of B28, the binding signal is reported as 8.19 PBM z-score against 500 random probes. With B29 the binding signal was -0.28 PBM z-score against 500 random probes. For B30, the binding signal was 0.41 PBM z-score against 500 random probes. For B31, the binding signal was -0.02 PBM z-score against 500 random probes. B32 was tested, and the binding signal was 0.48 PBM z-score against 500 random probes. With B33 the binding signal was -0.31 PBM z-score against 500 random probes.
